Assay [1] concerns the target Full-length recombinant HA (His-Tag), H1N1 hemagglutinin, GenScript Cat No. Z03181 (influenza A virus H1N1). As to the kind of experiment: MST; labelled His-HA (NT647-HA) held constant, compound in 16 1:1 serial dilutions from 50 µM, PBS, 10 min at rt, standard-treated capillaries, Monolith NT.115pico, 10% LED power, high MST power, triplicate.
Assay [2] has the same target. As to the kind of experiment: SPR.
For assay [3], the target named is T1, HA (H1N1 hemagglutinin, Cat No.: Z03181, GenScript) (Influenza A virus, UniProt C3W5S1).
T1 construct: Full-length recombinant HA (His-Tag) was immobilized; purchased GenScript Z03181-100
As to the kind of experiment: biochemical. In kind it is binding.

In assay [4] the test system is A/Parma/24/09 H1N1 virus. The arrangement: method as in Scala et al. (2017) [23]. The note with it: read-out: IC50 (peptide concentration that inhibits virus-induced hemagglutination by 50%), reference peptides, ref Scala et al. (2017) [23]; cited from earlier work.
For assay [5], the system named is A/Parma/24/09 H1N1 virus. The arrangement: method as in Scala et al. (2017) [23]. The note with it: read-out: EC50 (concentration that reduced cytopathic effect by 50%); reference peptides; ref Scala et al. (2017) [23]; cited from earlier work. For orientation: Protection from cytopathic effect is a common read-out in antiviral testing.

Broadly, the Kd is the constant that tells how readily two partners part at equilibrium.

*1 amine or outer side, *2 acyl side, *3 side chain or, on linkers, in order; H or OH if unused. Where a SMILES comes first, the peptide text is derived from it. [ ]: non-standard residue; d: D form. N(2-mercaptoethyl)Gly = O=C(CN(CCS[*:3])[*:1])[*:2]; NMeS = CN[C@@H](CO)C(=O)O

T1 sequence (C3W5S1 entry or part of it, added parts left off): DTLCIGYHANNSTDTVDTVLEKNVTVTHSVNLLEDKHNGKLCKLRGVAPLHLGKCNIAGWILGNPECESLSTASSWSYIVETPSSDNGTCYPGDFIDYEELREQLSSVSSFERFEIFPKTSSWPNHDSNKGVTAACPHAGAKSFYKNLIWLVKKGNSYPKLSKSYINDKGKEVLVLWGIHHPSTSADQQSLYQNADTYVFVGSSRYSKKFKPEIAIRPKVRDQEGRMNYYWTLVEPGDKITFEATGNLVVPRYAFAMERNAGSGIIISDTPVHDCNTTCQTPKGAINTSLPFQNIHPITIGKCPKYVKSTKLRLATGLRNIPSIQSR

In the case of SLDNhC (peptide), the Kd in assay [1] is 45.9 nM.

On to SKHNhS (peptide), for which the Kd in assay [2] amounted to 430 nM; in assay [1] it was 49.1 nM. In assay [3], `CC(=O)N[C@@H](CO)C(=O)N[C@@H](CC(C)C)C(=O)N[C@@H](CC(=O)O)C(=O)N(CCS)CC(N)=O` [Peptide 14, SLDNhC] (Ac-SLD[N(2-mercaptoethyl)Gly]-NH2) had a Kd of 45.9 ± 10 nM. As to S(N-Me)KHS (peptide), the Kd in assay [2] was 8330 nM; in assay [1] it was 7930 nM. As for SLNDC (peptide), the Kd in assay [1] was 1340 nM. In assay [3], `CC(=O)N[C@@H](CO)C(=O)N[C@@H](CCCCN)C(=O)N[C@@H](Cc1c[nH]cn1)C(=O)N(C)[C@@H](CO)C(N)=O` [Peptide 10, SKH(N-Me)S] (Ac-SKH[NMeS]-NH2) returned an equilibrium dissociation constant (Kd) of 3040 ± 850 nM.

As for SL(N-Me)DC (peptide), in assay [1], the Kd came out at 8800 nM. For the compound (N-Me)SKHS (peptide), the results for the Kd in assay [2] and in assay [1] were 4190 nM and 336 nM, respectively. For S(N-Me)LDC (peptide), the results for the Kd in assay [2] and in assay [1] were 580 nM and 32.5 nM, respectively. With SKHS [Peptide 2], the IC50 in the assay on A/Parma/24/09 H1N1 virus [4] is 1.5 ± 0.7 nM. In the case of SNLDC (peptide), the figures for the Kd in assay [2] and in assay [1] were 3810 nM and 701 nM, respectively. For the compound SLDC [Peptide 1], the EC50 in the assay on A/Parma/24/09 H1N1 virus [5] is 0.0046 nM. Also, the IC50 with A/Parma/24/09 H1N1 virus [4] was 6 ± 3 nM. As for NhSKHS (peptide), the Kd in assay [2] turned out to be 2090 nM; in assay [1], 7400 nM. Take SLD(N-Me)C (peptide): the results for the Kd in assay [2] and in assay [1] were 3800 nM and 142 nM, respectively. As to NhSLDC (peptide), the Kd was found to be 6550 nM in assay [2] and 67.2 nM in assay [1]. `CC(=O)N[C@@H](CO)C(=O)N[C@@H](CCCCN)C(=O)N(CC(=O)N[C@@H](CO)C(N)=O)Cc1c[nH]cn1` [Peptide 17, SKNHS] returned a Kd in assay [3] of 3070 ± 790 nM. For the compound SNKHS (peptide), the Kd in assay [2] came to 1700 nM; in assay [1], 39.1 nM.

For SK(N-Me)HS (peptide), the Kd in assay [2] worked out at 1260 nM; in assay [1], 52.8 nM.

For the compound SKNHS (peptide), the Kd in assay [1] stood at 3070 nM. For (N-Me)SLDC (peptide), the Kd worked out at 7600 nM in assay [2] and 24800 nM in assay [1]. In the case of SKH(N-Me)S (peptide), the Kd in assay [1] stood at 3040 nM.
